The source of these data is patent publication US10597674B2, “HPPD variants and methods of use” (BASF Agricultural Solutions Seed, US LLC, priority 2015, dated 2020).

Where two headings read alike, the source gives them in different places.

Series [1] has as its system E. coli cells expressing an HPPD polypeptide. Description: Brown color bioassay in liquid culture, residual brown color formation (BCF), OD440 after 96 hours. As to conditions: for Control BCF OD440nm: brown color formation in absence of Cmpd. 1, culture supernatant after 96 hours, 5 mM HPP; for Residual BCF OD440nm [%]: brown color formation with Cmpd. 1 (1000 μM) relative to without, after 96 hours. The series is classed as cell-based. Here is the method: In an additional experiment, mutant HPPD polypeptides were analyzed using the principle of a colorimetric brown color assay (as, for example, described in U.S. Pat. No. 6,768,044). Bacterial cells expressing the HPPD polypeptides according to this invention were assayed in 96 well plate format (Nunc® 96 DeepWell™ plate, Sigma-Aldrich, St. Louis, USA) for HPPD polypeptides with improved HPPD inhibitor herbicide tolerance.
E. coli cells were grown in liquid LB medium (Carl Roth GmbH+Co. KG, Karlsruhe, Germany) containing the selection agent for the expression vector pSE420(RI)NX (WO2014/043435) and 5 mM para-hydroxyphenylpyruvate (HPP; Sigma-Aldrich, St. Louis, USA), in the presence of absence of the HPPD inhibitor herbicide e.g. Cmpd. 1 (1000 μM). An overnight culture of E. coli culture expressing one of the respective HPPD polypeptides according to this invention were adjusted to an OD600 of 0.3-0.5 in a final volume of 500 μL and incubated at 30 degree Celsius. Residual brown color formation was determined by measuring the brown color formation (BCF) in the presence and absence of Cmpd. […] Therefore, after 96 hours the culture was centrifuged and the supernatant of the culture was used to measure the optical density of the soluble brown pigment formation at 440 nm (OD440 nm).

Series [2] deals with HPPD polypeptides (wild-type SEQ ID NO:1 and mutants). As to conditions: high substrate concentration; for Residual activity: kapp normalized to kapp without inhibitor; for Residual turnover: total change in signal normalized to no inhibitor.
The mark [3] stands for this setting: in the presence of Cmpd. 1, 15 μM inhibitor.
The mark [4] stands for this setting: in the presence of Cmpd. 2, 15 μM inhibitor.
The mark [5] stands for this setting: in the presence of diketonitrile (DKN), 60 μM inhibitor.
[6] abbreviates: in the presence of mesotrione (MST), 60 μM inhibitor.

B1: 21 (protein)
chain: MADLYENPMGLMGFEFIEFASPTPGTLEPIFEIMGFTKVATHRSKNVHLYRQGEINLILNNEPNSIASYFAAEHGPSVCGMAFRVKDSQKAYNRALELGAQPIHIDTGPMELNLPAIKGIGGAPLYLIDRFGEGSSIYDIDFVYLEGVERNPVGAGLKVIDHLTHNVYRGRMVYWANFYEKLFNFREARYFDIKGEYTGLTSKAMSAPDGMIRIPLNEESSKGAGQIEEFLMQFNGEGIQHVAFLTDDLVKTWDALKKIGMRFMTAPPDTYYEMLEGRLPDHGEPVDQLQARGILLDGSSVEGDKRLLLQIFSETLMGPVFFEFIQRKGDDGFGPHSFKALFESIERDQVRRGVLTAD
modifications: mutant HPPD polypeptide
In the case of B1, in series [1], the “Control BCF OD440nm” value stood at 0.99. Moreover, in series [1], the “Residual BCF OD440nm [%]” value is recorded as 65%. The Residual activity in series [2] (setting [3]) is on record as 18%; in series [2] (setting [4]), 73%; in series [2] (setting [5]) it was 81%; in series [2] (setting [6]), 62%. In addition, the Residual turnover in series [2] (setting [3]) is listed as 30%; in series [2] (setting [4]) it was 84%; in series [2] (setting [5]) it was “n.i”; in series [2] (setting [6]), 89%.

B2: 30 (protein)
chain: MADLYENPMGLMGFEFIEFASPTPGTLEPIFEIMGFTKVATHRSKNVHLYRQGEINLILNNEPNSIASYFAAEHGPSVCGMAFRVKDSQKAYNRALELGAQPIHIDTGPMELNLPAIKGIGGAPLYLIDRFGEGSSIYDIDFVYLEGVERNPVGAGLKVIDHLTHNVYRGRMVYWANFYEKLFNFREARYFDIKGEYTGLTSKAMSAPDGMIRIPLNEESSKGAGQIEEFLMQFNGEGIQHVAFLTDDLVKTWDALKKIGMRFMTAPSDSYYEMLEGRLPDHGEPVDQLQARGILLDGSSVEGDKRLLLQIFSETLMGPVFFEFIQRKGDDGFGPHSFKVLFESKERDQVRRGVLTAD
modifications: mutant HPPD polypeptide
For the molecule B2, in series [1], the “Control BCF OD440nm” value stood at 1.70. In series [1], the “Residual BCF OD440nm [%]” value is recorded as 56%. Moreover, the Residual activity in series [2] (setting [3]) is reported as 39%; in series [2] (setting [4]), 95%; in series [2] (setting [5]) it was “n.i. (no inhibition was observed under the given conditions)”; in series [2] (setting [6]) it was 87%. Besides, the Residual turnover was 65% in series [2] (setting [3]), “n.i” in series [2] (setting [4]), “n.i” in series [2] (setting [5]) and “n.i” in series [2] (setting [6]).

B3: 10 (protein)
chain: MADLYENPMGLMGFEFIEFASPTPGTLEPIFEIMGFTKVATHRSKNVHLYRQGEINLILNNEPNSIASYFAAEHGPSVCGMAFRVKDSQKAYNRALELGAQPIHIDTGPMELNLPAIKGIGGAPLYLIDRFGEGSSIYDIDFVYLEGVERNPVGAGLKVIDHLTHNVYRGRMVYWANFYEKLFNFREARYFDIKGEYTGLTSKAMSAPDGMIRIPLNEESSKGAGQIEEFLMQFNGEGIQHVAFLTDDLVKTWDALKKIGMRFMTAPPDTYYEMLEGRLPDHGEPVDQLQARGILLDGSSVEGDKRLLLQIFSETLMGPVFFEFIQRKGDDGFGPDSFKVLFESVERDQVRRGVLTAD
modifications: mutant HPPD polypeptide
As for B3, the “Control BCF OD440nm” value in series [1] was 1.09. For the same molecule, in series [1], the “Residual BCF OD440nm [%]” value is on record as 65%. For the same molecule, the Residual activity is 41% in series [2] (setting [3]), 89% in series [2] (setting [4]), “n.i. (no inhibition was observed under the given conditions)” in series [2] (setting [5]) and 82% in series [2] (setting [6]). For the same molecule, the Residual turnover in series [2] (setting [3]) was 66%; in series [2] (setting [4]) it was “n.i”; in series [2] (setting [5]), “n.i”; in series [2] (setting [6]) it was “n.i”.

B4: 29 (protein)
chain: MADLYENPMGLMGFEFIEFASPTPGTLEPIFEIMGFTKVATHRSKNVHLYRQGEINLILNNEPNSIASYFAAEHGPSVCGMAFRVKDSQKAYNRALELGAQPIHIDTGPMELNLPAIKGIGGAPLYLIDRFGEGSSIYDIDFVYLEGVERNPVGAGLKVIDHLTHNVYRGRMVYWANFYEKLFNFREARYFDIKGEYTGLTSKAMSAPDGMIRIPLNEESSKGAGQIEEFLMQFNGEGIQHVAFLTDDLVKTWDALKKIGMRFMTAPSDSYYEMLEGRLPDHGEPVDQLQARGILLDGSSVEGDKRLLLQIFSETLMGPVFFEFIQRKGDDGFGPHSFKVLFESVERDQVRRGVLTAD
modifications: mutant HPPD polypeptide
Turning to B4, the “Control BCF OD440nm” value in series [1] came out at 2.03. The “Residual BCF OD440nm [%]” value in series [1] turned out to be 42%. Also, the Residual activity is on record as 33% in series [2] (setting [3]), 85% in series [2] (setting [4]), 94% in series [2] (setting [5]) and 79% in series [2] (setting [6]). The Residual turnover is on record as 59% in series [2] (setting [3]), “n.i” in series [2] (setting [4]), “n.i” in series [2] (setting [5]) and 95% in series [2] (setting [6]).

B5: 7 (protein)
chain: MADLYENPMGLMGFEFIEFASPTPGTLEPIFEIMGFTKVATHRSKNVHLYRQGEINLILNNEPNSIASYFAAEHGPSVCGMAFRVKDSQKAYNRALELGAQPIHIDTGPMELNLPAIKGIGGAPLYLIDRFGEGSSIYDIDFVYLEGVERNPVGAGLKVIDHLTHNVYRGRMVYWANFYEKLFNFREARYFDIKGEYTGLTSKAMSAPDGMIRIPLNEESSKGAGQIEEFLMQFNGEGIQHVAFLTDDLVKTWDALKKIGMRFMTAPPDTYYEMLEGRLPDHGEPVDQLQARGILLDGSSVEGDKRLLLQIFSETLMGPVFFEFIQRKGDDGFGPDSFKALFESIERDQVRRGVLTAD
modifications: mutant HPPD polypeptide
B5: the “Control BCF OD440nm” value in series [1] stood at 1.83. In addition, in series [1], the “Residual BCF OD440nm [%]” value is 40%. The Residual activity in series [2] (setting [3]) was found to be 27%; in series [2] (setting [4]), 75%; in series [2] (setting [5]), 79%; in series [2] (setting [6]), 70%. For the same molecule, the Residual turnover was found to be 38% in series [2] (setting [3]), 83% in series [2] (setting [4]), 92% in series [2] (setting [5]) and 85% in series [2] (setting [6]).

B6: 24 (protein)
chain: MADLYENPMGLMGFEFIEFASPTPGTLEPIFEIMGFTKVATHRSKNVHLYRQGEINLILNNEPNSIASYFAAEHGPSVCGMAFRVKDSQKAYNRALELGAQPIHIDTGPMELNLPAIKGIGGAPLYLIDRFGEGSSIYDIDFVYLEGVERNPVGAGLKVIDHLTHNVYRGRMVYWANFYEKLFNFREARYFDIKGEYTGLTSKAMSAPDGMIRIPLNEESSKGAGQIEEFLMQFNGEGIQHVAFLTDDLVKTWDALKKIGMRFMTAPPDTYYEMLEGRLPDHGEPVDQLQARGILLDGSSVEGDKRLLLQIFSETLMGPVFFEFIQRKGDDGFGPHSFKVLFESVERDQVRRGVLTAD
modifications: mutant HPPD polypeptide
Consider B6, for which, in series [1], the “Control BCF OD440nm” value came to 1.56. For the same molecule, in series [1], the “Residual BCF OD440nm [%]” value is 48%. Besides, the Residual activity in series [2] (setting [3]) stood at 28%; in series [2] (setting [4]), 90%; in series [2] (setting [5]) it was 93%; in series [2] (setting [6]), 51%. Besides, the Residual turnover in series [2] (setting [3]) is 57%; in series [2] (setting [4]) it was “n.i”; in series [2] (setting [5]), “n.i”; in series [2] (setting [6]), 68%.

B7: 22 (protein)
chain: MADLYENPMGLMGFEFIEFASPTPGTLEPIFEIMGFTKVATHRSKNVHLYRQGEINLILNNEPNSIASYFAAEHGPSVCGMAFRVKDSQKAYNRALELGAQPIHIDTGPMELNLPAIKGIGGAPLYLIDRFGEGSSIYDIDFVYLEGVERNPVGAGLKVIDHLTHNVYRGRMVYWANFYEKLFNFREARYFDIKGEYTGLTSKAMSAPDGMIRIPLNEESSKGAGQIEEFLMQFNGEGIQHVAFLTDDLVKTWDALKKIGMRFMTAPPDTYYEMLEGRLPDHGEPVDQLQARGILLDGSSVEGDKRLLLQIFSETLMGPVFFEFIQRKGDDGFGPHSFKVLFESIERDQVRRGVLTAD
modifications: mutant HPPD polypeptide
Turning to B7, the “Control BCF OD440nm” value in series [1] was 1.67. For the same molecule, in series [1], the “Residual BCF OD440nm [%]” value is reported as 58%. The Residual activity in series [2] (setting [3]) is reported as 26%; in series [2] (setting [4]) it was 90%; in series [2] (setting [5]), “n.i”; in series [2] (setting [6]) it was 77%. The Residual turnover in series [2] (setting [3]) is on record as 53%; in series [2] (setting [4]) it was “n.i”; in series [2] (setting [5]) it was “n.i”; in series [2] (setting [6]) it was 99%.
